Data on one protein can be found in paper PMC2796084 (Biochemistry, 2009).

The series deals with the molecule itself. Kind of series: tryptophan fluorescence.

B1: FtsZ-L68W (natural protein, E. coli, UniProt P0A9A6 1-383, looked up)
chain: MFEPMELTNDAVIKVIGVGGGGGNAVEHMVRERIEGVEFFAVNTDAQALRKTAVGQTIQIGSGITKGWGAGANPEVGRNAADEDRDALRAALEGADMVFIAAGMGGGTGTGAAPVVAEVAKDLGILTVAVVTKPFNFEGKKRMAFAEQGITELSKHVDSLITIPNDKLLKVLGRGISLLDAFGAANDVLKGAVQGIAELITRPGLMNVDFADVRTVMSEMGYAMMGSGVASGEDRAEEAAEMAISSPLLEDIDLSGARGVLVNITAGFDLRLDEFETVGNTIRAFASDNATVVIGTSLDPDMNDELRVTVVATGIGMDKRPEITLVTNKQVQQPVMDRYQQHGMAPLTQEQKPVAKVVNDNAPQTAKEPDYLDIPAFLRKQAD
B1: the binding result is on record as “binds”.
